For this test, the target named is ribosomes (crude ribosome pellet). The test can be described thus: co-sedimentation.

Take “trimeric SEC61 complex (from UniProt P61619 1-476; P60468 1-96; P60059 1-68)”: the half-time of dissociation after harringtonine (in wild-type cells) is 15 min and the half-time of dissociation after puromycin (in wild-type cells) came out at 1 min.

Source of the values: article PMC11469336.
